For one series, the target named is ROR1 and MFRP. As to the kind of experiment: SPR; Biacore T100; biotinylated receptor ECD or hit protein captured on a streptavidin chip (~100-200 RU), non-biotinylated secreted ligand as analyte in twofold dilutions; HBS-P+ buffer; 1:1 Langmuir model or equilibrium fit. (In general: Surface plasmon resonance follows binding to a sensor surface in real time, without labels.)

For the next series, the target named is T1, ROR1-ECD (human, UniProt Q01973 30-406, biotin (captured on the streptavidin chip)).
T1 construct: ROR1, human, extracellular domain; construct of the ECD is not described; source: Expi293F, purified (Ni-NTA, SEC)
The description is as above. The note with it: both partners purified.

A further series deals with T2, MFRP-ECD (human, UniProt Q9BY79 91-579, biotin (captured on the streptavidin chip)).
T2 construct: membrane Frizzled-related protein, human, extracellular domain; construct of the ECD is not described; also called membrane Frizzled (FZD)-related protein; source: Expi293F, purified (Ni-NTA, SEC)
T2 sequence (looked up): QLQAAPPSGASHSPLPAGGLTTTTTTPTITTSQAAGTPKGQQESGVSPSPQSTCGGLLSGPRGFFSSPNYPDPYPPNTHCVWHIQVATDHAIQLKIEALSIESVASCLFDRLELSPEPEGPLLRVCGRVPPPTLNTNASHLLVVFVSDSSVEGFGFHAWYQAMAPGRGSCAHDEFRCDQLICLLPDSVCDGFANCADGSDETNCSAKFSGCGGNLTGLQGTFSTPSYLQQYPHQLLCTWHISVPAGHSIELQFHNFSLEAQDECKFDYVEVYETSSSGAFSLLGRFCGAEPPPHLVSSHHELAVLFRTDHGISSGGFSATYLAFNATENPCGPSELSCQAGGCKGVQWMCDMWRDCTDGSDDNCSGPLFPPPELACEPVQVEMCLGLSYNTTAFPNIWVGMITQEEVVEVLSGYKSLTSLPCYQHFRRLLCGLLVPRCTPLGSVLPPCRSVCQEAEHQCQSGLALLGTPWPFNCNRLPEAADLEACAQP
Described as above. The note with it: both partners purified.

For series [1], the target named is T3, MFRP-ECD (membrane Frizzled-related protein, extracellular domain) (human, UniProt Q9BY79 91-579, biotin (BirA biotinylation; captured on streptavidin chip)).
T3 construct: membrane Frizzled-related protein (MFRP), human, extracellular domain; source: Expi293F, purified (Ni-NTA, SEC), biotinylated in vitro with BirA
T3 sequence (looked up): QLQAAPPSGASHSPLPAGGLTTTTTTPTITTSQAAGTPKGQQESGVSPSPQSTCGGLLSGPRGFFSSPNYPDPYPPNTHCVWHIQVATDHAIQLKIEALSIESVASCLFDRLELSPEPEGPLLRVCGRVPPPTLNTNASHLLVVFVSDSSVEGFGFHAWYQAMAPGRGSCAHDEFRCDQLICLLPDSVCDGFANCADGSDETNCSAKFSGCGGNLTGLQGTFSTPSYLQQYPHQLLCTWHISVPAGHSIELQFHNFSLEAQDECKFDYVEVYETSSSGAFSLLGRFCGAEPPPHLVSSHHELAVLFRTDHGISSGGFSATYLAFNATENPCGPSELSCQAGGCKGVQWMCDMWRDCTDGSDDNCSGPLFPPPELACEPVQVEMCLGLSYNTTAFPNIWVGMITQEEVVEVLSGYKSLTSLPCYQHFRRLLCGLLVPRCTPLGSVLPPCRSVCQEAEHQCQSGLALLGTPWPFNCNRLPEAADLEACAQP
As to the kind of experiment: SPR; Biacore T100; biotinylated ligand captured on a streptavidin (SA) Series S chip (~100-200 RU); non-biotinylated analyte in twofold dilutions in HBS-P+; 60 s injection at 30 ul/min, 240 s dissociation; regeneration 2 x 10 sec 2M MgCl2; KD from the fit at equilibrium (steady state). The note with it: both partners purified.

Series [2] concerns the target T4, ROR1-ECD (transmembrane receptor tyrosine kinase ROR1, extracellular domain) (human, UniProt Q01973 30-406, biotin (BirA biotinylation; captured on streptavidin chip)).
T4 construct: receptor tyrosine kinase ROR1, human, extracellular domain; source: Expi293F, purified (Ni-NTA, SEC), biotinylated in vitro with BirA
Described as above. The note with it: both partners purified.

Series [3] concerns the molecule itself. As to the kind of experiment: SPR; Biacore T100; biotinylated receptor ECD or hit protein captured on a streptavidin chip (~100-200 RU), non-biotinylated secreted ligand as analyte in twofold dilutions; HBS-P+ buffer; 1:1 Langmuir model or equilibrium fit.
The target in series [4] is T5, growth arrest specific 1 protein (GAS1) (human, UniProt P54826 40-317).
T5 construct: growth arrest specific 1 (GAS1), human; source: Expi293F, purified (Ni-NTA, SEC), not biotinylated (SPR analyte)
T5 sequence (looked up): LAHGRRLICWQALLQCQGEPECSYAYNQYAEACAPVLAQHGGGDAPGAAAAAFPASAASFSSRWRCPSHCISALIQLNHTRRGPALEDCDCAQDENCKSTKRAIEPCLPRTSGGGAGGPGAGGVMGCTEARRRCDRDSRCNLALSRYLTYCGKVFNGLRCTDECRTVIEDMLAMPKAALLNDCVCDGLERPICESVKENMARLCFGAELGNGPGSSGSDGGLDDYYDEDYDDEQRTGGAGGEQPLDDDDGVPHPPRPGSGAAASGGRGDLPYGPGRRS
As to the kind of experiment: SPR; Biacore T100; biotinylated ligand captured on a streptavidin (SA) Series S chip (~100-200 RU); non-biotinylated analyte in twofold dilutions in HBS-P+; 60 s injection at 30 ul/min, 240 s dissociation; regeneration 2 x 10 sec 2M MgCl2; KD from the fit at equilibrium (steady state). The note with it: both partners purified.

What is called Kd is a measure of binding affinity in units of concentration. Lower therefore signals tighter binding.

B1: pleiotrophin (ligand, human, UniProt P21246 33-168, looked up)
chain: GKKEKPEKKVKKSDCGEWQWSVCVPTSGDCGLGTREGTRTGAECKQTMKTQRCKIPCNWKKQFGAECKYQFQAWGECDLNTALKTRTGSLKRALHNAECQKTVTISKPCGKLTKPKPQAESKKKKKEGKKQEKMLD
modifications: biotin (biotinylated in vitro with BirA) where used on beads or captured on the chip
notes: pleiotrophin, human; also called PTN; source: Expi293F, purified (Ni-NTA, SEC); not shown: AviTag, C-terminal, kept
In the case of B1, the Kd with ROR1 and MFRP was 1000 to 2000 nM. In addition, the binding result with ROR1-ECD and with MFRP-ECD was “binds” in each case.

B2: pleiotrophin (PTN) (ligand, human, UniProt P21246 33-168, looked up)
chain: GKKEKPEKKVKKSDCGEWQWSVCVPTSGDCGLGTREGTRTGAECKQTMKTQRCKIPCNWKKQFGAECKYQFQAWGECDLNTALKTRTGSLKRALHNAECQKTVTISKPCGKLTKPKPQAESKKKKKEGKKQEKMLD
notes: pleiotrophin (PTN), human; source: Expi293F, purified (Ni-NTA, SEC), not biotinylated (SPR analyte)
For the molecule B2, the dissociation constant Kd was found to be 1220 nM in series [1] and 1660 nM in series [2].

B3: SMOC1 (ligand, human, UniProt Q9H4F8 27-434, looked up)
chain: HRTTGPRFLISDRDPQCNLHCSRTQPKPICASDGRSYESMCEYQRAKCRDPTLGVVHRGRCKDAGQSKCRLERAQALEQAKKPQEAVFVPECGEDGSFTQVQCHTYTGYCWCVTPDGKPISGSSVQNKTPVCSGSVTDKPLSQGNSGRKDDGSKPTPTMETQPVFDGDEITAPTLWIKHLVIKDSKLNNTNIRNSEKVYSCDQERQSALEEAQQNPREGIVIPECAPGGLYKPVQCHQSTGYCWCVLVDTGRPLPGTSTRYVMPSCESDARAKTTEADDPFKDRELPGCPEGKKMEFITSLLDALTTDMVQAINSAAPTGGGRFSEPDPSHTLEERVVHWYFSQLDSNSSNDINKREMKPFKRYVKKKAKPKKCARRFTDYCDLNKDKVISLPELKGCLGVSKEGRLV
modifications: biotin (biotinylated in vitro with BirA) where used on beads or captured on the chip
notes: SMOC1, human; also called SPARC-related ligand; source: Expi293F, purified (Ni-NTA, SEC); not shown: AviTag, C-terminal, kept
With B3, in series [3], the binding result is “binds”.

B4: PTPRA-ECD (receptor protein tyrosine phosphatase alpha, extracellular domain) (domain or fragment, human, UniProt P18433 20-151, looked up)
chain: NNATTVAPSVGITRLINSSTAEPVKEEAKTSNPTSSLTSLSVAPTFSPNITLGPTYLTTVNSSDSDNGTTRTASTNSIGITISPNGTWLPDNQFTDARTEPWEGNSSTAATTPETFPPSGNSDSKDRRDETP
modifications: biotin (BirA biotinylation; captured on streptavidin chip)
notes: receptor-type protein tyrosine phosphatase alpha (PTPRA, R4 subfamily), human, extracellular domain; source: Expi293F, purified (Ni-NTA, SEC), biotinylated in vitro with BirA
B4 had a Kd in series [4] of 1130 nM.

Source of the values: publication PMC9578707, “Identification of orphan ligand-receptor relationships using a cell-based CRISPRa enrichment screening platform” (eLife, 2022).
